“Also recorded” adds a separate entry of the source.
B1: d22: partial peptide of mouse FGF18, 22 amino acids deleted from N-terminus; SEQ ID NO: 19 (protein)
chain: MRKQLRLYQLYSRTSGKHIQVLGRRISARGEDGDKYAQLLVETDTFGSQVRIKGKETEFYLCMNRKGKLVGKPDGTSKECVFIEKVLENNYTALMSAKYSGWYVGFTKKGRPRKGPKTRENQQDVHFMKRYPKGQAELQKPFKYTTVTKRSRRIRPTHPG
modifications: truncation mutant polypeptide of mouse FGF18(d22)
B2: d37: partial peptide of mouse FGF18, 37 amino acids deleted from N-terminus; SEQ ID NO: 20 (protein)
chain: MKHIQVLGRRISARGEDGDKYAQLLVETDTFGSQVRIKGKETEFYLCMNRKGKLVGKPDGTSKECVFIEKVLENNYTALMSAKYSGWYVGFTKKGRPRKGPKTRENQQDVHFMKRYPKGQAELQKPFKYTTVTKRSRRIRPTHPG
modifications: truncation mutant polypeptide of mouse FGF18(d37)
B3: FGF18: fibroblast growth factor 18 protein; secreted polypeptide of 181 amino acids; commercial FGF18 (PeproTech) used (protein)
chain: EENVDFRIHVENQTRARDDVSRKQLRLYQLYSRTSGKHIQVLGRRISARGEDGDKYAQLLVETDTFGSQVRIKGKETEFYLCMNRKGKLVGKPDGTSKECVFIEKVLENNYTALMSAKYSGWYVGFTKKGRPRKGPKTRENQQDVHFMKRYPKGQPELQKPFKYTTVTKRSRRIRPTHPA
B4: d77: partial peptide of mouse FGF18, 77 amino acids deleted from N-terminus; SEQ ID NO: 23 (protein)
chain: MTEFYLCMNRKGKLVGKPDGTSKECVFIEKVLENNYTALMSAKYSGWYVGFTKKGRPRKGPKTRENQQDVHFMKRYPKGQAELQKPFKYTTVTKRSRRIRPTHPG
modifications: truncation mutant polypeptide of mouse FGF18(d77)
B5: d48: partial peptide of mouse FGF18, 48 amino acids deleted from N-terminus; SEQ ID NO: 21 (protein)
chain: MARGEDGDKYAQLLVETDTFGSQVRIKGKETEFYLCMNRKGKLVGKPDGTSKECVFIEKVLENNYTALMSAKYSGWYVGFTKKGRPRKGPKTRENQQDVHFMKRYPKGQAELQKPFKYTTVTKRSRRIRPTHPG
modifications: truncation mutant polypeptide of mouse FGF18(d48)
B6: d95: partial peptide of mouse FGF18, 95 amino acids deleted from N-terminus; SEQ ID NO: 24 (protein)
chain: MGTSKECVFIEKVLENNYTALMSAKYSGWYVGFTKKGRPRKGPKTRENQQDVHFMKRYPKGQAELQKPFKYTTVTKRSRRIRPTHPG
modifications: truncation mutant polypeptide of mouse FGF18(d95)
B7: d16: partial peptide of mouse FGF18, 16 amino acids deleted from N-terminus; SEQ ID NO: 17 (protein)
chain: MARDDVSRKQLRLYQLYSRTSGKHIQVLGRRISARGEDGDKYAQLLVETDTFGSQVRIKGKETEFYLCMNRKGKLVGKPDGTSKECVFIEKVLENNYTALMSAKYSGWYVGFTKKGRPRKGPKTRENQQDVHFMKRYPKGQAELQKPFKYTTVTKRSRRIRPTHPG
modifications: truncation mutant polypeptide of mouse FGF18(d16)

What was measured:
[1] = molecular target: T1, FGFR4 (Homo sapiens, UniProt P22455); experiment: Inhibition of FGF18-stimulated DNA synthesis (cell growth) in FGFR4/BaF3 cells by FGF18 partial peptides; format: cell-based, mouse; settings: test sample 1 μg/ml, 30 ng/ml FGF18, FIG. 3A
T1 construct: expressed in transfected cells; host or cells: Ba/F3 (mouse IL-3-dependent proB cell); R4/Ba/F3 cells under G-418
T1 sequence (P22455 22-802, species assumed): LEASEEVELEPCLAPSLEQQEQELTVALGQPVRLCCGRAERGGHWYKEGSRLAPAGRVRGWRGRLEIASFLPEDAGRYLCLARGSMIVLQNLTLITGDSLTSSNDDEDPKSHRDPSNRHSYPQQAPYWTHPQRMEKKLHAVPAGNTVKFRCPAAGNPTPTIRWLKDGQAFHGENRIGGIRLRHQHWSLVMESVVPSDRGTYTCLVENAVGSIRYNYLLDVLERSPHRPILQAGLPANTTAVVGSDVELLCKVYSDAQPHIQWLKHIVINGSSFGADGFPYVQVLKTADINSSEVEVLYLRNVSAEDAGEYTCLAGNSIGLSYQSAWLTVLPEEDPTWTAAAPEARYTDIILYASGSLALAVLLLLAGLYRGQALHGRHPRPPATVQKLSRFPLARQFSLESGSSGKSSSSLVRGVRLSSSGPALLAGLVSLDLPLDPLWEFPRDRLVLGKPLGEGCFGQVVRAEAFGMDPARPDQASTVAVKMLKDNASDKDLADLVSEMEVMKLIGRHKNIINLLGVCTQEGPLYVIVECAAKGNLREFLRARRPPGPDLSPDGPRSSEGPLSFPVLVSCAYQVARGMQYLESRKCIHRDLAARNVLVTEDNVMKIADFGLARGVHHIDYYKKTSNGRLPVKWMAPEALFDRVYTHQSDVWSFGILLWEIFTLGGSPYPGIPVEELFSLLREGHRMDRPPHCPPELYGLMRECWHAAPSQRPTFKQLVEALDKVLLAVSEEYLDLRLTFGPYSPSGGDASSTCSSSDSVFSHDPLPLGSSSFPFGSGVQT
Description: (§1) According to teachings disclosed in literature, the FGF receptor genes FGFR1c, FGFR2c, FGFR3c and FGFR4 were respectively introduced by means of genetic engineering into Ba/F3 cell strain (obtained from RIKEN BRC) which is mouse IL-3-dependent proB cell to thereby prepare cells on whose surface FGFR was compulsively expressed (Ornitz, D M., Xu, J., Colvin, J S., McEwen, D G, MacArthur, C A., Coulier, E, Gao, G. and Goldfarb, M., 1996. Receptor specificity of the fibroblast growth factor family. J. Biol. Chem. 271(25):15292-15297; Yoneda, A., Asada, M., Oda, Y, Suzuki, M. and Imamura, T., 2000. Engineering of an FGF-proteoglycan fusion protein with heparin-independent, mitogenic activity. Nat. Biotec. 18(6):641-644).
(§2) Using these cells, the antagonist activity of test samples [whether or not test samples inhibit the DNA synthesis of FGF18-stimulated cell (this is taken as 100%)] was examined while stimulating each receptor with 30 ng/ml FGF18, in the co-presence of each partial peptide of FGF18 at 1 μg/ml (FIG. 3A) or at 100 ng/ml (FIG. 3B). Briefly, an activity that inhibits the cell growth stimulating effect of FGF18 was analyzed. Correspondence between individual columns and test samples is as described below.

[2] = system: FGFR3c; experiment: Inhibition of FGF18-stimulated DNA synthesis (cell growth) in FGFR3c/BaF3 cells by FGF18 partial peptides; format: cell-based, mouse
Description: as §1, §2

[3] = system: hair follicle growth; experiment: Hair growth inhibiting effect by continuous administration of FGF18 in anagen phase-induced C3H/HeN mice; format: in vivo, mouse
Protocol: In order to examine the effect of FGF18 in vivo on hair follicle growth, FGF18 protein dissolved in phosphate buffered physiological saline (PBS) was administered to hair follicle anagen phase-induced mice. Briefly, dorsal hair of 50 day-old C3H/HeN male mice in telogen phase was depilated gently with fingers to thereby induce the start of hair follicle anagen phase. Then, FGF18 solution was injected into the dorsal skin subcutaneously from the vicinity of the tail (1 μg of FGF18 per mouse). The mice were maintained on a diet and water ad libitum. Starting from this day, FGF18 solution was injected subcutaneously into the dorsal skin every day at about the same time for consecutive 8 days. The control group received injection of PBS instead of FGF18. Nine days after the initial injection, the mice were euthanized under anesthesia. Full thickness skin samples were excised from the dorsal part and embedded in paraffin. The thus embedded skin samples were sliced into 4 μm thick sections with a microtome, stained with hematoxylin and observed under microscope.

[4] = system: hair follicles; settings: single administration to mouse skin in telogen phase; Non-Patent Document 19 and Patent Document 2; cited from earlier work
[5] = system: human dermal papilla cells (HFDP); experiment: Effect of FGF18 on gene expression of hair follicle growth promoting factors in dermal papilla cells; format: cell-based; settings: dermal papilla cells cultured 24 hr with FGF18, then medium deprived of FGF18, versus continued FGF18-containing medium
Protocol: Cultured human dermal papilla cells (HFDP; from adult human scalp; Toyobo) were subcultured in HFDP growth medium (20% fetal bovine serum-containing basal medium for dermal papilla cell; Toyobo) and used in experiments within two passages. The cells were treated with trypsin and seeded in collagen-coated dishes (Sumilon; 6 cm in diameter) at 4×10^5 cells/dish. The cells were maintained at 37° C. in HFDP medium. On the next day, the medium was exchanged for HEK medium (EpiLife™, 0.06 mM CaCl2, 10 μg/ml insulin, 0.1 ng/ml hEGF, 0.5 μg/ml hydrocortisone, 0.4% BPE), and then FGF18 was added to the medium. After the cells were cultured for 24 hr, the medium was exchanged for FGF18 free medium in the test sample group (“-FGF18”). The control group (“Control”) was cultured continuously in the FGF18-containing medium. Subsequently, the cells were harvested and the mRNA was extracted and purified. The expression levels of mRNA from VEGF (known as a hair follicle growth promoting factor) and noggin (known as a hair growth inhibiting factor) contained in the resultant mRNA were analyzed.

[6] = test sample 1 μg/ml, 30 ng/ml FGF18, FIG. 3A
[7] = test sample 100 ng/ml, 30 ng/ml FGF18, FIG. 3B

Row | Molecule | inhibition of the activity of FGF18 on FGFR4/BaF3 cells [1] | inhibition of the activity of FGF18 on FGFR3c/BaF3 cells [2, 6] | also measured
1 | B1 | strongly inhibit | strongly inhibit | 
2 | B2 |  | strongly inhibit | 
3 | B3 |  |  | hair growth / hair follicle growth ([3]; 1 μg FGF18 per mouse subcutaneously once a day for 8 days after depilation, observed at day 9, versus PBS): hair growth is strongly inhibited; also recorded: hair growth was markedly inhibited; growth of hair follicles after stopping FGF18 administration ([3]; continuous administration under the same conditions, then stopped and mice raised thereafter): growth of hair follicles occurred; hair regrowth after single administration [4]: induces hair regrowth; expression level of VEGF mRNA [5]: 4.8 fold; expression level of noggin mRNA [5]: 3.5 fold
4 | B4 | strongly inhibit | strongly inhibit | 
5 | B5 | strongly inhibit | strongly inhibit | 
6 | B6 | strongly inhibit | strongly inhibit | inhibition of the activity of FGF18 on FGFR3c/BaF3 cells [2, 7]: strongly inhibit
7 | B7 |  | strongly inhibit | inhibition of the activity of FGF18 on FGFR3c/BaF3 cells [2, 7]: strongly inhibit

Reference: patent publication US20100203055A1, “HAIR REGROWTH PROMOTER” (priority 2007, published 2010)
